Changes are numbered by the printed parent chain. Numbers in names are those of the source.
B1: L. menadoensis uricase, wild type (LM-UOX-6His) (enzyme, UniProt M3XGK0 1-306, looked up)
chain: MSHYVSSTRFQKDTDVEFVRTGYGKNIVKVLHIKREGKTHYIKEVEVAVQLALKSRKDYLYGDNSDIIPTDTMKNTVHALAKLKGINTIEEFAMDICEHFLTSFNHVTRANTYVEEAPWKRMEKNEVKHVHAFIYSPEATRFCEVEHHQNEPPVVHSGIKDMKVLKTTQSGFEGFVKDRFTTLPEVTDRCFSTVIYSKWLYNRSKNIDFDAAWKTVYDVIIEKFAGPYECGEYSPSVQKTLYETQVLCLNRVPEIEEVEIVMPNKHYFTIDMSKIGIVNKDEVLLPLDNPSGNITGTVRRKAHSKL
notes: Uricase (urate oxidase) of Latimeria menadoensis, 306 amino acids; synthetic cDNA amplified with primers from the start codon to the last codon (no stop codon), cloned NdeI/XhoI into pET20b(+); The His6 tag is joined to the protein by two residues from the XhoI site; also called WT; WT LM-UOX; source: E. coli BL21(DE3), purified (Ni-NTA IMAC, gel filtration); not shown: His6, C-terminal, kept
B2: L. menadoensis uricase D288C mutant (enzyme, UniProt M3XGK0 1-306, looked up)
chain: B1 chain with D288C
notes: Uricase (urate oxidase) of Latimeria menadoensis, 306 amino acids, same construct as the wild type (pET20LM-UOX) with D288C by site-directed mutagenesis; His6 tag joined by two residues from the XhoI site, as in m1; source: E. coli BL21(DE3), purified (Ni-NTA IMAC, gel filtration); not shown: His6, C-terminal, kept
B3: L. menadoensis uricase S136C mutant (enzyme, UniProt M3XGK0 1-306, looked up)
chain: B1 chain with S136C
notes: Uricase (urate oxidase) of Latimeria menadoensis, 306 amino acids, same construct as the wild type (pET20LM-UOX) with S136C by site-directed mutagenesis; His6 tag joined by two residues from the XhoI site, as in m1; source: E. coli BL21(DE3), purified (Ni-NTA IMAC, gel filtration); not shown: His6, C-terminal, kept
B4: L. menadoensis uricase I27C/N289C mutant (enzyme, UniProt M3XGK0 1-306, looked up)
chain: B1 chain with I27C, N289C
notes: His6 tag joined by two residues from the XhoI site, as in m1; which cysteines pair (C27 with C289 of the other subunit of a dimer) is a prediction only; source: E. coli BL21(DE3), purified (Ni-NTA IMAC, gel filtration); not shown: His6, C-terminal, kept
B5: L. menadoensis uricase N289C mutant (enzyme, UniProt M3XGK0 1-306, looked up)
chain: B1 chain with N289C
notes: Uricase (urate oxidase) of Latimeria menadoensis, 306 amino acids, same construct as the wild type (pET20LM-UOX) with N289C by site-directed mutagenesis; His6 tag joined by two residues from the XhoI site, as in m1; source: E. coli BL21(DE3), purified (Ni-NTA IMAC, gel filtration); not shown: His6, C-terminal, kept
B6: L. menadoensis uricase A132C/A225C mutant (enzyme, UniProt M3XGK0 1-306, looked up)
chain: B1 chain with A132C, A225C
notes: His6 tag joined by two residues from the XhoI site, as in m1; source: E. coli BL21(DE3), purified (Ni-NTA IMAC, gel filtration); not shown: His6, C-terminal, kept

Target: the molecule itself
Test: SEC; 16/60 Sephacryl S-300 HR gel-filtration column; molecular weight under native condition calculated from the retention volume (Kav) against a calibration curve
Settings: not given

Row | Protein | stoichiometry N
1 | B1 | 4
2 | B2 | 4
3 | B3 | 4
4 | B4 | 4
5 | B5 | 4
6 | B6 | 4

substrate: O=c1[nH]c(=O)c2[nH]c(=O)[nH]c2[nH]1; test: purified protein; assay type: biochemical, Latimeria menadoensis; settings: 50 mM sodium borate pH 8.0, 30 °C, 15-120 µM uric acid

Row | Protein | Km | kcat | kcat/Km
7 | B1 | 18.43 ± 0.4 µM | 29.9 ± 0.3 s⁻¹ | 1.62e+06 M⁻¹ s⁻¹
8 | B2 | 189.65 ± 0.2 µM | 65.07 ± 0.3 s⁻¹ | 340000 M⁻¹ s⁻¹
9 | B3 | 15.28 ± 0.1 µM | 22.49 ± 0.1 s⁻¹ | 1.47e+06 M⁻¹ s⁻¹
10 | B4 | 35.39 ± 0.1 µM | 32.58 ± 0.2 s⁻¹ | 920000 M⁻¹ s⁻¹
11 | B5 | 30.46 ± 0.1 µM | 34.06 ± 0.1 s⁻¹ | 1.12e+06 M⁻¹ s⁻¹
12 | B6 | 39.19 ± 0.5 µM | 58.2 ± 0.6 s⁻¹ | 1.49e+06 M⁻¹ s⁻¹

— publication PMC6471336, “Production and Characterization of Recombinant Wild Type Uricase from Indonesian Coelacanth (L. menadoensis) and Improvement of Its Thermostability by In Silico Rational Design and Disulphide Bridges Engineering” (International Journal of Molecular Sciences, 2019)
